{
  "source": "patent US20180273622A1",
  "about": "(APTEVO RESEARCH AND DEVELOPMENT, published 2018)",
  "binders": {"B1": {"name": "Fc H10L5 (TSC324) (Fc fusion)", "chain": "EPKSSDKTHTCPPCPAPEAAGAPSVFLFPPKPKDTLMISRTPEVTCVVVDVSHEDPEVKFNWYVDGVEVHNAKTKPREEQYNSTYRVVSVLTVLHQDWLNGKAYACAVSNKALPAPIEKTISKAKGQPREPQVYTLPPSRDELTKNQVSLTCLVKGFYPSDIAVEWESNGQPENNYKTTPPVLDSDGSFFLYSKLTVDKSRWQQGNVFSCSVMHEALHNHYTQKSLSLSPGQRHNNSSLNTGTQMAGHSPNSQVQLVQSGAEVKKPGSSVKVSCKASGGTFSRSTMHWVRQAPGQGLEWMGYINPSSAYTNYNQKFKDRVTITADKSTSTAYMELSSLRSEDTAVYYCARPQVHYDYNGFPYWGQGTLVTVSSGGGGSGGGGSGGGGSGGGGSDIQMTQSPSSLSASVGDRVTITCSASSSVSYMNWYQQKPGKAPKLLIYDSSKLASGVPSRFSGSGSGTDFTLTISSLQPEDFATYYCQQWSRNPPTFGGGTKVEIKRSSS", "notes": "Fc anti-CD3 scFv format with H75 linker; The entry is the mature protein"}, "B2": {"name": "Fc H10L8 (TSC342) (Fc fusion)", "chain": "B1 chain with S403T, L438R, L439W, D462E, E473D", "notes": "Fc anti-CD3 scFv format; The entry is the mature protein"}, "B3": {"name": "Fc H10L6 (TSC340) (Fc fusion)", "chain": "B1 chain with L438R, L439W", "notes": "as for B2"}, "B4": {"name": "Fc H10L7 (TSC341) (Fc fusion)", "chain": "EPKSSDKTHTCPPCPAPEAAGAPSVFLFPPKPKDTLMISRTPEVTCVVVDVSHEDPEVKFNWYVDGVEVHNAKTKPREEQYNSTYRVVSVLTVLHQDWLNGKAYACAVSNKALPAPIEKTISKAKGQPREPQVYTLPPSRDELTKNQVSLTCLVKGFYPSDIAVEWESNGQPENNYKTTPPVLDSDGSFFLYSKLTVDKSRWQQGNVFSCSVMHEALHNHYTQKSLSLSPGQRHNNSSLNTGTQMAGHSPNSQVQLVQSGAEVKKPGSSVKVSCKASGGTFSRSTMHWVRQAPGQGLEWMGYINPSSAYTNYNQKFKDRVTITADKSTSTAYMELSSLRSEDTAVYYCARPQVHYDYNGFPYWGQGTLVTVSSGGGGSGGGGSGGGGSGGGGSEIVLTQSPATLSLSPGERATLSCSASSSVSYMNWYQQKPGLAPRRWIYDSSKLASGIPDRFSGSGSGTDFTLTISRLEPEDFAVYYCQQWSRNPPTFGGGTKVEIKRSSS", "notes": "as for B2"}},
  "key": {"[1]": {"molecular_target": "T1, human CD3 (human, UniProt P07766 23-207; P09693 23-182; P04234 22-171; P20963 22-164)", "T1 construct": "whole, on cells; It was presented on the CD3+ Jurkat T-cell line, on a Jurkat subclone with higher CD3 expression, or on human T-cells; also called CD3 on Jurkat T-cells; CD3 on human T-cells", "T1 sequence (P07766 23-207, chain 1 of 4)": "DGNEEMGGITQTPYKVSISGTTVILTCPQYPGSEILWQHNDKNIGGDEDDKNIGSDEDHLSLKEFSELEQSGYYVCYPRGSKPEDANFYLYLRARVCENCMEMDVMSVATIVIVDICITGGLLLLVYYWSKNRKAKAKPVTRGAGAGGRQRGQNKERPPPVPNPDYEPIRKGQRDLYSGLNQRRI", "T1 sequence (P09693 23-182, chain 2 of 4)": "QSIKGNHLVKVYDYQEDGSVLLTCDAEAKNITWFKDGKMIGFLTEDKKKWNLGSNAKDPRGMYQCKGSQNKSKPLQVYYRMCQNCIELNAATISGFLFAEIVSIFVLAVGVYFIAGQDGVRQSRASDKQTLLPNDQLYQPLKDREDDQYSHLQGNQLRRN", "T1 sequence (P04234 22-171, chain 3 of 4)": "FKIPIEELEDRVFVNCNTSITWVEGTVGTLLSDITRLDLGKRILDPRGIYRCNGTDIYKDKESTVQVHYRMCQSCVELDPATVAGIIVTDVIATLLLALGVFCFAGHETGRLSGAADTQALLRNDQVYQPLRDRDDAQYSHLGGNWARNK", "T1 sequence (P20963 22-164, chain 4 of 4)": "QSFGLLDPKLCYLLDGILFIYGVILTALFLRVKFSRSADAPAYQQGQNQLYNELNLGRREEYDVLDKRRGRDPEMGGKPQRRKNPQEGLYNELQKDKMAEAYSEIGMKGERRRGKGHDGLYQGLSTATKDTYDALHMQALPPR", "assay": "flow cytometry on Jurkat T-cells, anti-human IgG detection", "method": "Binding studies were performed by standard flow cytometry-based staining procedures using the CD3⁺ Jurkat T-cell line. All labeling and washes were performed in U-bottom 96-well plates in saline buffer with 3% BSA and 2 mM EDTA. Jurkat cells were plated at 200,000 cells per well and incubated with a range of 0.1 nM to 200 nM concentrations of test molecules in 50 μL volume/well, for 30 minutes on ice. Cells were washed three times then incubated for another 30 minutes on ice with fluorescently-labeled minimum cross reactive secondary polyclonal antibody, F(ab′)² goat anti-human IgG, (Jackson ImmunoResearch Laboratories) and the viability dye 7-AAD. The cells were then washed twice, and the samples acquired in a BD LSRII flow cytometer. The sample files were analyzed using FlowJo software; the mean fluorescence intensity (MFI) of the live population of Jurkat cells in each well was calculated after gating on live cells (forward vs. side scatter, then 7-AAD cells)."}, "[2]": {"molecular_target": "T1, human CD3", "assay": "flow cytometry on a Jurkat subclone with higher CD3 expression (FIG. 2)"}},
  "note": "Changes are numbered by the printed parent chain.",
  "data": [
    {"binder": "B1", "values": [
      {"measurement": "EC50", "setting": "[1]", "value": 3.6, "unit": "nM"},
      {"measurement": "fold increase in the EC50 of binding compared to TSC312", "setting": "[1]", "value": 2, "unit": "fold"}
    ]},
    {"binder": "B2", "values": [
      {"measurement": "fold higher EC50 than TSC312", "setting": "[2]", "value": 2, "unit": "fold"}
    ]},
    {"binder": "B3", "values": [
      {"measurement": "fold higher EC50 than TSC312", "setting": "[2]", "value": 2, "unit": "fold"}
    ]},
    {"binder": "B4", "values": [
      {"measurement": "fold higher EC50 than TSC312", "setting": "[2]", "value": 2, "unit": "fold"}
    ]}
  ]
}
